Residue numbers refer to the chain shown, from its start. Read-outs that look alike come from different tables or passages of the source.
Columns and labels:
[1] = molecular target: T1, HCV-1 sE1E2.Cut1+2.SPYΔN-His6 (Hepatitis C virus genotype 1a, isolate …, UniProt P26664, stabilised); assay: BLI
[2] = molecular target: T1, HCV-1 sE1E2.Cut1+2.SPYΔN-His6; assay: negative-stain electron microscopy
HCV-1 E1E2 = HCV-1 E1E2 (Hepatitis C virus genotype 1a, isolate …, UniProt P26664, strain); assay: ELISA
[3] = molecular target: T1, HCV-1 sE1E2.Cut1+2.SPYΔN-His6; assay: BLI; remark: listed apart in the source
H77 E1E2, wild type [4] = molecular target: T2, H77 E1E2, wild type (Hepatitis C virus genotype 1a, isolate …); assay: ELISA
H77 E1E2, wild type [5] = molecular target: T2, H77 E1E2, wild type; assay: ELISA; remark: listed apart in the source

B1: RM3-26 (IgG) (antibody, V domains shown)
VH: QLQLQESGPGLVKPSETLSLTCIVSGGSISGYSWNWIRQPPGKGLEWIGNIFSGGDDANYNPSLKSRVTLSVDTSKNHFSLRLSSVTAADTAVYYCARHSAGFITGRYFELWGQGALVTVSS
VL: DIQMTQSPSSLSASLGDRVTITCRANQDISSSLAWYQQKPGKAPKPLIYYASNLESGVPSRFRGSGSGTEFTLTISSLQSEDFAVYYCQQYNSDPLTFGGGTKVEIK
- binding result [1]: binds

B2: K400 Fab (Fab, V domains shown)
VH: EVQLVQSGAEVKTPGASVRVSCTASGDTFTNHDIHWVRQAPGQGLEWMGGMNADSGKTAYAQKFQGRVSMTINTPTNTAYMDLSSLRSEDTALYYCARGDGLDFTLFGVAHYSYYNGVGVWGHGTTITVSS
VL: EIVMTQSPLALPVTPGEPASIFCKSSHSLLHYNGYTYLDWYLQKPGQSPQLLIYLGSNRASGVPDRFSGSGSGTEFTLKISRVEAEDVGVYYCMQALQTPITFGQGTRLEIK
- binding result [2]: binds

B3: K595 Fab (Fab, V domains shown)
VH: EVQLLESGGGLVQPGGSLRLSCAASGFTFSNYVMTWARQAPGKGLEWVSSISDSGGNADYAHSVRGRFTISRDNSKNTLFLHMNSLRVEDTAVYHCAKALIAPGSLFRDQLLNWFDFWGQGTRVTVSS
VL: DIQMTQSPSTLSASVGDRVTITCRASQSIGNWLAWYQQKPGKAPKLLIYQASTLKSGVPSRFSGSGSGTEFSLTISSLQPDDLATYFCQQYNGSPLTFAGGTKVEIK
- binding result [2]: binds

B4: AR4A Fab (Fab, V domains shown)
VH: VQLLEQSGPEVKKPGDSLRISCKMSGDSLVTTWIGWVRQKPGQGLEWMGIINPGDSSTNIYPGDSATRYGPSFQGQVTISIDKSTSTAYLQWNNVKASDTGIYYCARHVPVPISGTFLWREREMHDFGYFDDWGQGTLVIVSS
VL: ELTLTQSPGTLSLSPGERATLSCRASQSVSNNYLAWYQQKPGQAPRLLIYGASSRATGIPDRFSGSGSGTGFTLIISRLEPEDFAVYYCQQYGSSSITFGQGTRLEIK
- binding result [2]: binds

B5: AR4A (IgG) (antibody, V domains shown)
VH: B4 VH
VL: B4 VL
- binding result (HCV-1 E1E2): binds
- binding result [3]: binds

B6: K595 (antibody) (antibody, V domains shown)
VH: B3 VH
VL: B3 VL
- binding result (HCV-1 E1E2): binds

B7: K400 (antibody) (antibody, V domains shown)
VH: B2 VH
VL: B2 VL
- binding result (H77 E1E2, wild type [4]): binds
- binding result (HCV-1 E1E2): binds

B8: RM3-26 variant, heavy chain CDRH1 Y32 to alanine, wild-type light chain (antibody, V domains shown)
VH: B1 VH with Y32A
VL: B1 VL
- binding result (H77 E1E2, wild type [5]): binds

B9: RM3-26 variant, heavy chain CDRH3 R100c to alanine, wild-type light chain (antibody, V domains shown)
VH: B1 VH with R107A
VL: B1 VL
- binding result (H77 E1E2, wild type [5]): binds

B10: RM3-26 variant, light chain CDRL2 Y50 to alanine, wild-type heavy chain (antibody, V domains shown)
VH: B1 VH
VL: B1 VL with Y50A
- binding result (H77 E1E2, wild type [5]): binds

B11: RM3-26 variant, light chain CDRL3 Y91 to alanine, wild-type heavy chain (antibody, V domains shown)
VH: B1 VH
VL: B1 VL with Y91A
- binding result (H77 E1E2, wild type [5]): binds

B12: RM3-26 variant, heavy chain CDRH3 T100a to alanine, wild-type light chain (antibody, V domains shown)
VH: B1 VH with T105A
VL: B1 VL
- binding result (H77 E1E2, wild type [5]): no binding (tested: 1 µg/mL (methods))

B13: RM3-26 variant, heavy chain CDRH3 Y100d to alanine, wild-type light chain (antibody, V domains shown)
VH: B1 VH with Y108A
VL: B1 VL
- binding result (H77 E1E2, wild type [5]): no binding (tested: 1 µg/mL (methods))

From publication doi:10.1101/2025.11.05.686883 (bioRxiv, 2025)
